What is called Kd is the constant that tells how readily two partners part at equilibrium. High values mean a looser complex, low ones a tighter complex.

Here are results for five molecules from patent US20200317768A1 (published 2020).

Assay [1] has as its target T1, human FcγRIIIaV extracellular domain, C-terminal His-tag (human, UniProt P08637 17-208).
T1 construct: also called FcgRIIIaV; not shown: His-tag added to the C-terminus
The experiment in a line: SPR (BIACORE), antibody captured, soluble FcgR as analyte, 25C. Here is the method: (§1) The kinetic analysis of interactions between these antibodies and FcγR was carried out using BIACORE® T200 or BIACORE® 4000 (GE Healthcare). HBS-EP+ (GE Healthcare) was used as the running buffer, and the measurement temperature was set to 25° C. A chip produced by immobilizing Protein A. Protein A/G or mouse anti-human IgG kappa light chain (BD Biosciences) onto a Series S Sensor Chip CM4 or CM5 (GE Healthcare) by the amine-coupling method was used. […] After the measurement, the antibody captured on the chip was washed off by allowing reaction with 10 mM glycine-HCl, pH1.5 and 25 mM NaOH so that the chip was regenerated and used repeatedly. The sensorgrams obtained as measurement results were analyzed by the 1:1 Langmuir binding model using the BIACORE® Evaluation Software to calculate the binding rate constant ka (L/mol/s) and dissociation rate constant kd (l/s), and the dissociation constant KD (mol/L) was calculated from these values. […] Regarding such interactions, KD values were calculated using the following 1:1 binding model described in BIACORE® T100 Software Handbook BR1006-48 Edition AE.
(§2) Human FcγRIIb-enhanced Fc variants with anti-myostatin variable region were constructed and their affinity for human FcγRs was evaluated. […] In addition, substitutions (Q311R/D413K or […]) were also introduced. The variants were expressed using M103202L1045-SK1 as light chain and their affinity to human FcγRs was analyzed according to the method shown in Example 34.

In assay [2] the target is T2, human FcγRIIaR extracellular domain, C-terminal His-tag (human, UniProt P12318 34-217).
T2 construct: also called human FcγRIIa (type R); FcgRIIaR; not shown: His-tag added to the C-terminus
T2 chain: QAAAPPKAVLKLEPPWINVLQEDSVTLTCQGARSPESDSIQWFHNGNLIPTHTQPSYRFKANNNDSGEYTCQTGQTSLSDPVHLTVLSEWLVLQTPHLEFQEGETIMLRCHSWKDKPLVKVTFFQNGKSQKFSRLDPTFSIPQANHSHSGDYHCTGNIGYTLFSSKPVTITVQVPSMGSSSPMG
Described as above. How it is done:
as §1, §2

The target in assay [3] is T3, human FcγRIIb extracellular domain, C-terminal His-tag (human, UniProt P31994 43-217).
T3 construct: also called FcgRIIb; not shown: His-tag added to the C-terminus
T3 sequence: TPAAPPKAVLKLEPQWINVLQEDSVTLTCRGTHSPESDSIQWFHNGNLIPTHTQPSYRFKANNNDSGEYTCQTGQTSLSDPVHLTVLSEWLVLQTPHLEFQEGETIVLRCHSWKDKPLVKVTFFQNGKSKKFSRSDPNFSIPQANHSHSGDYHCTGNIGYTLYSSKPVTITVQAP
The assay is described as above. How it is done:
as §1, §2

Assay [4] addresses T4, human FcγRIIaH extracellular domain, C-terminal His-tag (human, UniProt P12318 34-217).
T4 construct: also called human FcγRIIa (type H); FcgRIIaH; not shown: His-tag added to the C-terminus
T4 sequence: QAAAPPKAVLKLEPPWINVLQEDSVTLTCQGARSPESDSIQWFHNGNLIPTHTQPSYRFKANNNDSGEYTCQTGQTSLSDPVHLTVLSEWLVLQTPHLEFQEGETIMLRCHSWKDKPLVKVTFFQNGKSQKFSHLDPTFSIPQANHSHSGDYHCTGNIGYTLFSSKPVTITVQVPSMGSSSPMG
Described as above. Here is the method:
as §1, §2

In assay [5] the target is T1, human FcγRIIIaV extracellular domain, …. Nature of the assay: SPR; KD of SG1 divided by KD of variant.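 Note: relative to parent M103205H795-SG1 carrying the SG1 human heavy chain constant region.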 Here is the method: as §1, §2
(SPR reads the build-up and loss of mass on a sensor chip optically.)

Assay [6] concerns the target T2, human FcγRIIaR extracellular domain, …. The experiment in a line: SPR; KD of SG1 divided by KD of variant.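 Note: relative to parent M103205H795-SG1 carrying the SG1 human heavy chain constant region.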 How it is done: as §1, §2
Assay [7] addresses T3, human FcγRIIb extracellular domain, …. Nature of the assay: SPR; KD of SG1 divided by KD of variant.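 Note: relative to parent M103205H795-SG1 carrying the SG1 human heavy chain constant region.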 How it is done: as §1, §2
Assay [8] addresses T4, human FcγRIIaH extracellular domain, …. The experiment in a line: SPR; KD of SG1 divided by KD of variant.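 Note: relative to parent M103205H795-SG1 carrying the SG1 human heavy chain constant region.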 Here is the method:
as §1, §2

T1 sequence (P08637 17-208 F176V): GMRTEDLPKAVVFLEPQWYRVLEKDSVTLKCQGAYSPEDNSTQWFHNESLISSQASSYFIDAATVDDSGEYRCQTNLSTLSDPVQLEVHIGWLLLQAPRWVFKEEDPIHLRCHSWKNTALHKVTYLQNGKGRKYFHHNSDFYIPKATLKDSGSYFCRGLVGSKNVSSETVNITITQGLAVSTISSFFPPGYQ

B1: MS103240H795-TT11/M103202L1045-SK1 (antibody, human IgG1, kappa)
heavy: QVQLVESGGGLVQPGGSLRLSCAVSGIDLSHDDISWVRQAPGKGLEWVSIISYAGSTYYASWAKGRLTISKDTSKNQVVLTMTNMDPVDTATYYCARGVPAYSHGGDLWGQGTLVTVSSASTKGPSVFPLAPSSKSTSGGTAALGCLVKDYFPEPVTVSWNSGALTSGVHTFPAVLQSSGLYSLSSVVTVPSSSLGTQTYICNVNHKPSNTKVDKKVEPKSCDKTHTCPPCPAPEYLGGDSVFLFPPKPKDVLMISRTPEVTCVVVDVSHEDPEVKFNWYVDGVEVHNAKTKPREEQYNSTYRVVSVLPVLHQDWLNGKEYKCKVSNKALPKPIEKTISKAKGQPREPQVYTLPPSREEMTKNQVSLTCLVKGFYPSDIAVEWESNGQPENNYKTTPPVLDSDGSFFLYSKLTVDKSRWQQGNVFSCSVMHEALHNHYTQKSLSLSP
light: DIVMTQSPATLSLSPGERATLSCTTSQSVYHENWLSWFQQKPGQPPKLLIYWASTLAYGVPSRFSGSGSGTDFTLTISSLQPEDAATYYCAGGYGGGRYAFGQGTKVEIKRTVAAPSVFIFPPSDEQLKSGTASVVCLLNNFYPREAKVQWKVDNALQSGNSQESVTEQDSKDSTYSLSSTLTLSKADYEKHKVYACEVTHQGLSSPVTKSFNRGEC
notes: CH = SG1 with L234Y/P238D/T250V/T307P/A330K (EU numbering)
Regarding B1, the Kd in assay [1] was 170 µM; in assay [2] it was 10 µM; in assay [3], 0.52 µM; in assay [4], 24 µM. For the same molecule, the “KD fold (SG1 = 1)” value in assay [5] amounted to 0.005 fold; in assay [6] it was 0.11 fold; in assay [7] it was 11.2 fold; in assay [8], 0.031 fold.

B2: MS103240H795-TT14/M103202L1045-SK1 (antibody, human IgG1, kappa)
heavy: QVQLVESGGGLVQPGGSLRLSCAVSGIDLSHDDISWVRQAPGKGLEWVSIISYAGSTYYASWAKGRLTISKDTSKNQVVLTMTNMDPVDTATYYCARGVPAYSHGGDLWGQGTLVTVSSASTKGPSVFPLAPSSKSTSGGTAALGCLVKDYFPEPVTVSWNSGALTSGVHTFPAVLQSSGLYSLSSVVTVPSSSLGTQTYICNVNHKPSNTKVDKKVEPKSCDKTHTCPPCPAPEYLGGDSVFLFPPKPKDVLMISRTPEVTCVVIDVSHEDPEVKFNWYVDGVEVHNAKTKPREEQYNSTYRVVSVLPVLHQDWLNGKEYKCKVSNKALPKPIEKTISKAKGQPREPQVYTLPPSREEMTKNQVSLTCLVKGFYPSDIAVEWESNGQPENNYKTTPPVLDSDGSFFLYSKLTVDKSRWQQGNVFSCSVMHEALHNHYTQKSLSLSP
light: DIVMTQSPATLSLSPGERATLSCTTSQSVYHENWLSWFQQKPGQPPKLLIYWASTLAYGVPSRFSGSGSGTDFTLTISSLQPEDAATYYCAGGYGGGRYAFGQGTKVEIKRTVAAPSVFIFPPSDEQLKSGTASVVCLLNNFYPREAKVQWKVDNALQSGNSQESVTEQDSKDSTYSLSSTLTLSKADYEKHKVYACEVTHQGLSSPVTKSFNRGEC
notes: CH = SG1 with L234Y/P238D/T250V/V264I/T307P/A330K (EU numbering)
Turning to B2, the Kd in assay [1] came out at 150 µM; in assay [2] it was 7.6 µM; in assay [3], 0.19 µM; in assay [4], 18 µM. Also, the “KD fold (SG1 = 1)” value is 0.005 fold in assay [5], 0.14 fold in assay [6], 30.5 fold in assay [7] and 0.042 fold in assay [8].

B3: MS103240H795-TT15/M103202L1045-SK1 (antibody, human IgG1, kappa)
heavy: QVQLVESGGGLVQPGGSLRLSCAVSGIDLSHDDISWVRQAPGKGLEWVSIISYAGSTYYASWAKGRLTISKDTSKNQVVLTMTNMDPVDTATYYCARGVPAYSHGGDLWGQGTLVTVSSASTKGPSVFPLAPSSKSTSGGTAALGCLVKDYFPEPVTVSWNSGALTSGVHTFPAVLQSSGLYSLSSVVTVPSSSLGTQTYICNVNHKPSNTKVDKKVEPKSCDKTHTCPPCPAPEYLGGDSVFLFPPKPKDVLMISRTPEVTCVVIDVAHEDPEVKFNWYVDGVEVHNAKTKPREEQYNSTYRVVSVLPVLHQDWLNGKEYKCKVSNKALPKPIEKTISKAKGQPREPQVYTLPPSREEMTKNQVSLTCLVKGFYPSDIAVEWESNGQPENNYKTTPPVLDSDGSFFLYSKLTVDKSRWQQGNVFSCSVMHEALHNHYTQKSLSLSP
light: DIVMTQSPATLSLSPGERATLSCTTSQSVYHENWLSWFQQKPGQPPKLLIYWASTLAYGVPSRFSGSGSGTDFTLTISSLQPEDAATYYCAGGYGGGRYAFGQGTKVEIKRTVAAPSVFIFPPSDEQLKSGTASVVCLLNNFYPREAKVQWKVDNALQSGNSQESVTEQDSKDSTYSLSSTLTLSKADYEKHKVYACEVTHQGLSSPVTKSFNRGEC
notes: CH = SG1 with L234Y/P238D/T250V/V264I/S267A/T307P/A330K (EU numbering)
Regarding B3, the Kd in assay [1] is 130 µM; in assay [2] it was 6.1 µM; in assay [3] it was 0.25 µM; in assay [4] it was 29 µM. For the same molecule, the “KD fold (SG1 = 1)” value is 0.006 fold in assay [5], 0.18 fold in assay [6], 23.2 fold in assay [7] and 0.026 fold in assay [8].

B4: MS103240H795-TT13/M103202L1045-SK1 (antibody, human IgG1, kappa)
heavy: QVQLVESGGGLVQPGGSLRLSCAVSGIDLSHDDISWVRQAPGKGLEWVSIISYAGSTYYASWAKGRLTISKDTSKNQVVLTMTNMDPVDTATYYCARGVPAYSHGGDLWGQGTLVTVSSASTKGPSVFPLAPSSKSTSGGTAALGCLVKDYFPEPVTVSWNSGALTSGVHTFPAVLQSSGLYSLSSVVTVPSSSLGTQTYICNVNHKPSNTKVDKKVEPKSCDKTHTCPPCPAPELLGGDSVFLFPPKPKDVLMISRTPEVTCVVIDVAHEDPEVKFNWYVDGVEVHNAKTKPREEQYNSTYRVVSVLPVLHQDWLNGKEYKCKVSNKALPKPIEKTISKAKGQPREPQVYTLPPSREEMTKNQVSLTCLVKGFYPSDIAVEWESNGQPENNYKTTPPVLDSDGSFFLYSKLTVDKSRWQQGNVFSCSVMHEALHNHYTQKSLSLSP
light: DIVMTQSPATLSLSPGERATLSCTTSQSVYHENWLSWFQQKPGQPPKLLIYWASTLAYGVPSRFSGSGSGTDFTLTISSLQPEDAATYYCAGGYGGGRYAFGQGTKVEIKRTVAAPSVFIFPPSDEQLKSGTASVVCLLNNFYPREAKVQWKVDNALQSGNSQESVTEQDSKDSTYSLSSTLTLSKADYEKHKVYACEVTHQGLSSPVTKSFNRGEC
notes: CH = SG1 with P238D/T250V/V264I/S267A/T307P/A330K (EU numbering)
For B4, the Kd came to 140 µM in assay [1], 9.8 µM in assay [2], 0.32 µM in assay [3] and 45 µM in assay [4]. In addition, the “KD fold (SG1 = 1)” value is 0.006 fold in assay [5], 0.11 fold in assay [6], 18.1 fold in assay [7] and 0.017 fold in assay [8].

B5: MS103240H795-TT12/M103202L1045-SK1 (antibody, human IgG1, kappa)
heavy: QVQLVESGGGLVQPGGSLRLSCAVSGIDLSHDDISWVRQAPGKGLEWVSIISYAGSTYYASWAKGRLTISKDTSKNQVVLTMTNMDPVDTATYYCARGVPAYSHGGDLWGQGTLVTVSSASTKGPSVFPLAPSSKSTSGGTAALGCLVKDYFPEPVTVSWNSGALTSGVHTFPAVLQSSGLYSLSSVVTVPSSSLGTQTYICNVNHKPSNTKVDKKVEPKSCDKTHTCPPCPAPEYLGGDSVFLFPPKPKDVLMISRTPEVTCVVVDVAHEDPEVKFNWYVDGVEVHNAKTKPREEQYNSTYRVVSVLPVLHQDWLNGKEYKCKVSNKALPKPIEKTISKAKGQPREPQVYTLPPSREEMTKNQVSLTCLVKGFYPSDIAVEWESNGQPENNYKTTPPVLDSDGSFFLYSKLTVDKSRWQQGNVFSCSVMHEALHNHYTQKSLSLSP
light: DIVMTQSPATLSLSPGERATLSCTTSQSVYHENWLSWFQQKPGQPPKLLIYWASTLAYGVPSRFSGSGSGTDFTLTISSLQPEDAATYYCAGGYGGGRYAFGQGTKVEIKRTVAAPSVFIFPPSDEQLKSGTASVVCLLNNFYPREAKVQWKVDNALQSGNSQESVTEQDSKDSTYSLSSTLTLSKADYEKHKVYACEVTHQGLSSPVTKSFNRGEC
notes: CH = SG1 with L234Y/P238D/T250V/S267A/T307P/A330K (EU numbering)
As for B5, the Kd in assay [1] turned out to be 130 µM; in assay [2], 5 µM; in assay [3], 0.49 µM; in assay [4], 20 µM. Moreover, the “KD fold (SG1 = 1)” value in assay [5] stood at 0.006 fold; in assay [6], 0.22 fold; in assay [7] it was 11.8 fold; in assay [8] it was 0.038 fold.
